# From US20230322924A1 (Janssen / Centocor, published 2023)
# Where two headings read alike, the source gives them in different places.
# B1: IC3B34 (bispecific antibody, human IgG4 S228P, kappa, F234A L235A)
# heavy: not shown
# light: DIQLTQSPSFLSASVGDRVTITCRASQGISSYLAWYQQKPGKAPKLLIYAASTLQSGVPSRFSGSGSGTEFTLTISSLQPEDFATYYCQQVNSYPLTFGGGTKVEIKRTVAAPSVFIFPPSDEQLKSGTASVVCLLNNFYPREAKVQWKVDNALQSGNSQESVTEQDSKDSTYSLSSTLTLSKADYEKHKVYACEVTHQGLSSPVTKSFNRGEC
# VH: QVQLQQSGPRLVRPSQTLSLTCAISGDSVFNNNAAWSWIRQSPSRGLEWLGRTYYRSKWLYDYAVSVKSRITVNPDTSRNQFTLQLNSVTPEDTALYYCARGYSSSFDYWGQGTLVTVSS
# VL: QSALTQPASVSGSPGQSITISCTGTSSNIGTYKFVSWYQQHPDKAPKVLLYEVSKRPSGVSSRFSGSKSGNTASLTISGLQAEDQADYHCVSYAGSGTLLFGGGTKLTVL
# B2: IC3B19 (IAPB57×CD3B219) IL1RAP×CD3 bispecific antibody (bispecific antibody, human IgG4 S228P, kappa, F234A L235A)
# heavy: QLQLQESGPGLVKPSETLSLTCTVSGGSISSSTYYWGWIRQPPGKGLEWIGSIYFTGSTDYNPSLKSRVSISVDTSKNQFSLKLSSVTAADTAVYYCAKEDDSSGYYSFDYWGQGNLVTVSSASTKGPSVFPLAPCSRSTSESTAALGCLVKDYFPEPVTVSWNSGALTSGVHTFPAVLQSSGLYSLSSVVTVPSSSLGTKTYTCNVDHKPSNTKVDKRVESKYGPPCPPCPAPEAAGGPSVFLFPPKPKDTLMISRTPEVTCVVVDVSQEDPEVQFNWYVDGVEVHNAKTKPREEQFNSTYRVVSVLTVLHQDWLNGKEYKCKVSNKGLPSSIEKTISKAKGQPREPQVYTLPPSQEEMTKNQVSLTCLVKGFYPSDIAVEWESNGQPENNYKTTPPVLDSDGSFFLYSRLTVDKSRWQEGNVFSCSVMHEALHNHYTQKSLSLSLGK
# light: B1 light
# VH: EVQLVESGGGLVQPGGSLRLSCAASGFTFNTYAMNWVRQAPGKGLEWVARIRSKYNNYATYYAASVKGRFTISRDDSKNSLYLQMNSLKTEDTAVYYCARHGNFGNSYVSWFAYWGQGTLVTVSS
# VL: QTVVTQEPSLTVSPGGTVTLTCRSSTGAVTTSNYANWVQQKPGQAPRGLIGGTNKRAPGTPARFSGSLLGGKAALTLSGVQPEDEAEYYCALWYSNLWVFGGGTKLTVL
# B3: IC3B34 (IAPB57×CD3B376) IL1RAP×CD3 bispecific antibody (bispecific antibody, human IgG4 S228P, kappa, lambda, F234A L235A)
# heavy 1: not shown
# light 1: B1 light
# heavy 2: QVQLQQSGPRLVRPSQTLSLTCAISGDSVFNNNAAWSWIRQSPSRGLEWLGRTYYRSKWLYDYAVSVKSRITVNPDTSRNQFTLQLNSVTPEDTALYYCARGYSSSFDYWGQGTLVTVSSASTKGPSVFPLAPCSRSTSESTAALGCLVKDYFPEPVTVSWNSGALTSGVHTFPAVLQSSGLYSLSSVVTVPSSSLGTKTYTCNVDHKPSNTKVDKRVESKYGPPCPPCPAPEAAGGPSVFLFPPKPKDTLMISRTPEVTCVVVDVSQEDPEVQFNWYVDGVEVHNAKTKPREEQFNSTYRVVSVLTVLHQDWLNGKEYKCKVSNKGLPSSIEKTISKAKGQPREPQVYTLPPSQEEMTKNQVSLTCLVKGFYPSDIAVEWESNGQPENNYKTTPPVLDSDGSFLLYSKLTVDKSRWQEGNVFSCSVMHEALHNHYTQKSLSLSLGK
# light 2: QSALTQPASVSGSPGQSITISCTGTSSNIGTYKFVSWYQQHPDKAPKVLLYEVSKRPSGVSSRFSGSKSGNTASLTISGLQAEDQADYHCVSYAGSGTLLFGGGTKLTVLGQPKAAPSVTLFPPSSEELQANKATLVCLISDFYPGAVTVAWKADSSPVKAGVETTTPSKQSNNKYAASSYLSLTPEQWKSHRSYSCQVTHEGSTVEKTVAPTECS
# B4: C3CB189 (bispecific antibody, IgG4, V domains shown)
# VH 1: EVQLVESGGGLVQPGRSLRLSCAASGFTFDDYAMHWVRQAPGKGLEWVSGIGWSGGSIVYADSVKGRFTISRDNAKNSLYLQMNSLRAEDTALYYCAKDSPYGDFFDYWGQGTLVTVSS
# VL 1: DIVMTQSPDSLAVSLGERATINCKSSQTVFYSSNNKNYLAWYQQKPGQPPKLLISWASTRKSGVPDRFSGSGSGTDFTLTVSSLQAEDVAVYYCQHYYSTPYTFGQGTKLEIK
# VH 2: B1 VH
# VL 2: B1 VL
# B5: PSMM52 (Fab, V domains shown)
# VH: QVQLVQSGAEVKKPGSSVKVSCKASGGTFSSYAISWVRQAPGQGLEWMGWIIPYNGNANYAQKFQGRVTITADESTSTAYMELSSLRSEDTAVYYCARVNSAALVWERLDYWGQGTLVTVSS
# VL: DIQMTQSPSSLSASVGDRVTITCRASQSIDRWLNWYQQKPGKAPKLLIYAASSLQSGVPSRFSGSGSGTDFTLTISSLQPEDFATYYCQQSPRYPLTFGQGTKVEIK
# notes: Mammalian Fab supernatant; also called PSMB51
# B6: PSMM59 (Fab, V domains shown)
# VH: EVQLVQSGAEVKKPGESLKISCKGSGYSFTSYWISWVRQMPGKGLEWMGIIYPGDSYTRYSPSFQGQVTISADKSISTAYLQWSSLKASDTAMYYCARDYEWELFDSRLDYWGQGTLVTVSS
# VL: not shown
# notes: Mammalian Fab supernatant; also called PSMB58
# B7: PSMM87 (Fab, V domains shown)
# VH: QVQLVQSGAEVKKPGSSVKVSCKASGGTFKSYDISWVRQAPGQGLEWMGGIIPIEGTANYAQKFQGRVTITADESTSTAYMELSSLRSEDTAVYYCARDYPAGYGFDYWGQGTLVTVSS
# VL: not shown
# notes: Mammalian Fab supernatant; also called PSMB86
# B8: PSMM85 (Fab, V domains shown)
# VH: EVQLLESGGGLVQPGGSLRLSCAASGFTFDSDWMSWVRQAPGKGLEWVSAISGNGGSTEYADSVKGRFTISRDNSKNTLYLQMNSLRAEDTAVYYCARDPYYYYDGDSYYGMDVWGQGTLVTVSS
# VL: not shown
# notes: Mammalian Fab supernatant; also called PSMB84
# B9: C3CB88 (bispecific antibody, IgG4, V domains shown)
# VH 1: B4 VH 1
# VL 1: B4 VL 1
# VH 2: B2 VH
# VL 2: B2 VL
# B10: PSMM18 (Fab, V domains shown)
# VH: EVQLVQSGAEVKKPGESLKISCKGSGYSFTSYWIGWVRQMPGKGLEWMGIIYPGDSDTRYSPSFQGQVTISADKSISTAYLQWSSLKASDTAMYYCARAYHYSKGLDYWGQGTLVTVSS
# VL: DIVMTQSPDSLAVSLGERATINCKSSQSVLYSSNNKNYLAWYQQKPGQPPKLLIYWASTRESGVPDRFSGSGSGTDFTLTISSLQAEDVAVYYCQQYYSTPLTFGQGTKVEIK
# notes: Mammalian Fab supernatant; also called PSMB18
# Tests used:
# [1] = target: human IL1RAP on NCI-H1975 cells (human); assay: cell-based or functional assay
# [2] = target: T1, human IL1RAP (interleukin-1 receptor accessory protein) on LAMA-84 cells (human); assay: cell-based or functional assay
# [3] = target: T1, human IL1RAP (interleukin-1 receptor …); assay: cell-based or functional assay; remark: listed apart in the source
# Human CD33 full length [4] = target: T2, Human CD33 full length (human, UniProt P20138 18-364); assay: cell-based or functional assay
# Cyno CD33 full length = Cyno CD33 full length (cynomolgus monkey); assay: cell-based or functional assay
# Cyno CD3e = Cyno CD3e (cynomolgus monkey, UniProt Q95LI5 22-198); assay: cell-based or functional assay
# Human CD33 full length [5] = target: T2, Human CD33 full length; assay: cell-based or functional assay; remark: listed apart in the source
# [6] = target: T3, cynomolgus monkey PSMA on HEK cells (cynomolgus); assay: flow cytometry, mammalian Fab supernatant on cyno-PSMA HEK cells (PSMG5), anti-human kappa-RPE
# T3 construct: whole, on cells; also called Cyno-PSMA HEK; PSMG5
# Source text: (§1) (Mammalian Fab Supernatant Titration Curves for Anti-PSMA Phage Panning Hits vs Cyno PSMA HEK). […] In FIG. 24D, Mammalian-expressed supernatants were normalized for Fab expression via octet, and titrated against either human LNCAP, PSMG5 (Cyno-PSMA HEK), or PSMG9 (chimp-PSMA HEK) cells using flow cytometry. Geometric mean fluorescence intensity (GeoMFI) was plotted vs. Fab concertation using GraphPad Prizm.
# (§2) A cell-based binding assay was designed to assess the binding capabilities of individual Fab-his fusions from E. coli supernatants to PSMA-expressing cells. Individual Fab clones were isolated from the round 3 output of all panning experiments following pIX excision. Fab clones were tested for binding to chimp and cyno PSMA expressing HEK cells, as well as to human PSMA on LNCaP cells. Briefly, PSMA expressing cells were aliquoted into a V-bottom plate (CoStar 3357) at a density of 200,000 per well and incubated with (100 μl) supernatants expressing Fab fragments for 1 hour on ice. […] Plates were read on a BD FACS Array flow cytometer. FACS data was analyzed in FlowJo software by live gating the healthy population of cells using forward scatter and side scatter, and then analyzing the cells within this gate for PE staining. Mean fluorescence intensity (MFI) was calculated and exported into Microsoft Excel. […]
# [7] = target: T3, cynomolgus monkey PSMA on HEK cells; assay: as above; remark: listed apart in the source
# Source text: as §1, §2
# [8] = target: T4, human PSMA on cells (LNCaP) (human, UniProt Q04609 1-750); assay: flow cytometry, mammalian Fab supernatant on LNCaP cells, anti-human kappa-RPE
# T4 construct: whole, on cells; also called LNCaP cells
# Protocol: (§3) Individual Fab clones were isolated from the round 3 output of all panning experiments following pIX excision. Fab clones were tested for binding to chimp and cyno PSMA expressing HEK cells, as well as to human PSMA on LNCaP cells. Briefly, PSMA expressing cells were aliquoted into a V-bottom plate (CoStar 3357) at a density of 200,000 per well and incubated with (100 μl) supernatants expressing Fab fragments for 1 hour on ice. Cells were washed twice with PBS containing 2% FBS, and stained with a mouse anti-human kappa-RPE antibody (Life Technologies cat #MH10514) for 1 hour on ice. Cells were washed twice with PBS containing 2% FBS and resuspended in […] of the same wash buffer. Plates were read on a BD FACS Array flow cytometer. FACS data was analyzed in FlowJo software by live gating the healthy population of cells using forward scatter and side scatter, and then analyzing the cells within this gate for PE staining. Mean fluorescence intensity (MFI) was calculated and exported into Microsoft Excel. […] Fabs were sequenced and moved forward for cloning into mammalian expression vector for rescreening. True positives were selected from the binding of mammalian cell expressed Fab supernatants to PSMA-expressing cell lines.
# FIGS. 22A, 22B, 22C and 22D show the titration curves for anti-PSMA panning hits vs. LNCaP cells. […] Binding profiles among hits were compared across cell lines expressing different species of PSMA.
# [9] = target: T5, chimpanzee PSMA on HEK cells (chimpanzee, UniProt H2Q3K5 1-750); assay: flow cytometry, mammalian Fab supernatant on chimp-PSMA HEK cells (PSMG9), anti-human kappa-RPE
# T5 construct: also called chimp-PSMA HEK; PSMG9
# Protocol: as §3
# (§4) FIGS. 22A, 22B, 22C and 22D show the titration curves for anti-PSMA panning hits vs. LNCaP cells. […]
# [10] = target: T5, chimpanzee PSMA on HEK cells; assay: as above; remark: listed apart in the source
# Protocol: as §3, §4
# T2 sequence (P20138 18-364 limits assumed): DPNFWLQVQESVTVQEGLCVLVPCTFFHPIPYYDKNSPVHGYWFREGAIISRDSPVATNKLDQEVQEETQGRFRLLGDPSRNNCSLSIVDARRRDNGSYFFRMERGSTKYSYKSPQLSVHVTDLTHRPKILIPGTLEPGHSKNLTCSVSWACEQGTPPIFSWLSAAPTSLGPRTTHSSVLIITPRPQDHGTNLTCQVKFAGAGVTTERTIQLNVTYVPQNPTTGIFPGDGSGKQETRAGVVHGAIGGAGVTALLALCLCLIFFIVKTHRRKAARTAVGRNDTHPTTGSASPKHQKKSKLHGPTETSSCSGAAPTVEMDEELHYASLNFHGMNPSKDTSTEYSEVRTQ
# T5 sequence (H2Q3K5 entry or part of it limits assumed): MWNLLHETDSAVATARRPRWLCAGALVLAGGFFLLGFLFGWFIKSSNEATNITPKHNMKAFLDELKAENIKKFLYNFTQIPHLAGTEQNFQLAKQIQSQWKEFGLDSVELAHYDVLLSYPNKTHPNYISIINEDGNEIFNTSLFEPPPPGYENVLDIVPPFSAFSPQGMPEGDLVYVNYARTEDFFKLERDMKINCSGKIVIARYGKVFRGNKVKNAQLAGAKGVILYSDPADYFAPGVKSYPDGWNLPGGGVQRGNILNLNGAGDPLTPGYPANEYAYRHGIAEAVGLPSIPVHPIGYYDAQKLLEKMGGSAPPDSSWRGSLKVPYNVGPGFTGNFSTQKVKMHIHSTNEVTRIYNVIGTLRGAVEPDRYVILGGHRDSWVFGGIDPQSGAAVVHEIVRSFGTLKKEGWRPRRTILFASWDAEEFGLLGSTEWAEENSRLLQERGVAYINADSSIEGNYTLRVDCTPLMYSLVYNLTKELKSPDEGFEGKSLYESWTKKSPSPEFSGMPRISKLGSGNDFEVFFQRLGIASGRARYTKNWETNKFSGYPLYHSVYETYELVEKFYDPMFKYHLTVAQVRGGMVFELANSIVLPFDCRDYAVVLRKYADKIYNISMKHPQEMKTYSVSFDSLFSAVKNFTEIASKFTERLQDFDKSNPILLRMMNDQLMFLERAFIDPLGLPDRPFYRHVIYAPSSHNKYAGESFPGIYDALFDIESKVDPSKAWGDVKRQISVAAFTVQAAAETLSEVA
# T4 sequence (Q04609 whole entry): as the sequence (H2Q3K5 entry or part of it limits assumed) above, with L155S, H281R, Y475H, N613S, T647S, L660V, D727E, S733Y counted along it
# Cyno CD3e, sequence (Q95LI5 22-198): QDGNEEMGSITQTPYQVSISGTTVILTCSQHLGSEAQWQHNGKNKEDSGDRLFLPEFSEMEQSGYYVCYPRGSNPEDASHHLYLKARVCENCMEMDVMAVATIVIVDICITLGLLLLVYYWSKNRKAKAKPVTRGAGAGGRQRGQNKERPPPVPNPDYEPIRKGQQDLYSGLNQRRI
binder,measurement,setting,value
B1,"cytotoxicity EC50, caspase 3/7 assay, NCI-H1975 cells with pan T cells",[1],0.057 nM
B2,"Cytotoxicity EC50 (nM), LAMA-84 cell line, whole blood T cell cytotoxicity assay, 48 h",[2],2.1 nM
same,"T-cell Activation EC50 (nM) (CD25), LAMA-84 cell line, whole blood assay, 48 h",[3],4.24 nM
B3,"Cytotoxicity EC50 (nM), LAMA-84 cell line, whole blood T cell cytotoxicity assay, 48 h",[2],2.76 nM
same,"T-cell Activation EC50 (nM) (CD25), LAMA-84 cell line, whole blood assay, 48 h",[3],7.83 nM
B4,CD33^+ CD14^+ Killing EC50,Human CD33 full length [4],1.16 nM
same,MOLM13 Killing EC50,Human CD33 full length [4],0.168 nM
same,CD33^+ CD14^+ Killing EC50,Cyno CD33 full length,3.6 nM
same,T cell activation EC50,Cyno CD3e,0.02 nM
same,Primary AML Cell Killing EC50,Human CD33 full length [5],0.578 nM
B5,EC50 (read off the curve),[6],~0.2 µg/mL
same,EC50 (read off the curve),[7],~0.2 µg/mL
same,EC50 (read off the curve),[8],~0.3 µg/mL
same,EC50 (read off the curve),[9],~0.2 µg/mL
same,EC50 (read off the curve),[10],~0.2 µg/mL
B6,EC50 (read off the curve),[6],~0.2 µg/mL
B7,EC50 (read off the curve),[8],~0.2 µg/mL
same,EC50 (read off the curve),[9],~0.4 µg/mL
B8,EC50 (read off the curve),[7],~0.4 µg/mL
B9,CD33^+ CD14^+ Killing EC50,Human CD33 full length [4],0.506 nM
same,MOLM13 Killing EC50,Human CD33 full length [4],0.671 nM
same,CD33^+ CD14^+ Killing EC50,Cyno CD33 full length,0.89 nM
same,T cell activation EC50,Cyno CD3e,0.02 nM
same,Primary AML Cell Killing EC50,Human CD33 full length [5],0.672 nM
B10,binding result,[8],binds
same,EC50 (read off the curve),[10],~0.3 µg/mL
